Biological target: FGF receptor on COS cells
Test: cell-based or functional assay

| Substance | transduction efficiency (GFP positive autofluorescent COS cells) against control phage MEGFP3 [fold] | phagemid particle-dependent transfection of COS-1 cells (fold molar excess) |
| --- | --- | --- |
| FGF2 display phage MF2/1G3 (FGF2-pIII fusion on M13 type 3 phage) (from UniProt P09038 2-155; P69168 19-424) | 10 |  |
| free FGF2 (non-biotinylated) (from UniProt P09038 2-155) (ligand) |  | 100 |

— patent US7148202
